Laboratory results taken from patent US20170232104A1.

Legend:
[1] = target: 28mer peptide of the CXCR5 antigen; test: antigen ELISA; PBS 155 mM, light stress, 24 h +40C
[2] = target: 28mer peptide of the CXCR5 antigen; test: antigen ELISA; 100 mg/mL formulation, +5C, 1 month
[3] = target: 28mer peptide of the CXCR5 antigen; test: antigen ELISA; 100 mg/mL formulation, +5C, initial
[4] = target: 28mer peptide of the CXCR5 antigen; test: antigen ELISA; PBS 155 mM, polypropylene, 24 h +40C
[5] = target: 28mer peptide of the CXCR5 antigen; test: antigen ELISA; 100 mg/mL formulation, -20C, 1 month
[6] = target: 28mer peptide of the CXCR5 antigen; test: antigen ELISA; 100 mg/mL formulation, -20C, initial
[7] = target: 28mer peptide of the CXCR5 antigen; test: antigen ELISA; 100 mg/mL formulation, +5C, 3 months
[8] = target: 28mer peptide of the CXCR5 antigen; test: antigen ELISA; 100 mg/mL formulation, +5C, 6 months
[9] = target: 28mer peptide of the CXCR5 antigen; test: antigen ELISA; 100 mg/mL formulation, +5C, 9 months
[10] = target: 28mer peptide of the CXCR5 antigen; test: antigen ELISA; 100 mg/mL formulation, +25C, 1 month
[11] = target: 28mer peptide of the CXCR5 antigen; test: antigen ELISA; 100 mg/mL formulation, +25C, initial
[12] = target: 28mer peptide of the CXCR5 antigen; test: antigen ELISA; 100 mg/mL formulation, -20C, 3 months
[13] = target: 28mer peptide of the CXCR5 antigen; test: antigen ELISA; 100 mg/mL formulation, -20C, 6 months
[14] = target: 28mer peptide of the CXCR5 antigen; test: antigen ELISA; 100 mg/mL formulation, -20C, 9 months
[15] = target: 28mer peptide of the CXCR5 antigen; test: antigen ELISA; 100 mg/mL formulation, +5C, 12 months
[16] = target: 28mer peptide of the CXCR5 antigen; test: antigen ELISA; 100 mg/mL formulation, +5C, 15 months
[17] = target: 28mer peptide of the CXCR5 antigen; test: antigen ELISA; 100 mg/mL formulation, +5C, 18 months
[18] = target: 28mer peptide of the CXCR5 antigen; test: antigen ELISA; 100 mg/mL formulation, +25C, 3 months
[19] = target: 28mer peptide of the CXCR5 antigen; test: antigen ELISA; 100 mg/mL formulation, +25C, 6 months
[20] = target: 28mer peptide of the CXCR5 antigen; test: antigen ELISA; 100 mg/mL formulation, -20C, 12 months
[21] = target: 28mer peptide of the CXCR5 antigen; test: antigen ELISA; 100 mg/mL formulation, -20C, 18 months
[22] = target: 28mer peptide of the CXCR5 antigen; test: antigen ELISA; citrate pH 6.0 prototype B, 20 mg/mL, T0
[23] = target: 28mer peptide of the CXCR5 antigen; test: antigen ELISA; citrate pH 6.0 prototype C, 20 mg/mL, T0
[24] = target: 28mer peptide of the CXCR5 antigen; test: antigen ELISA; acetate pH 5.5 prototype C, 20 mg/mL, T0
[25] = target: 28mer peptide of the CXCR5 antigen; test: antigen ELISA; acetate pH 5.5 prototype D, 20 mg/mL, T0
[26] = target: 28mer peptide of the CXCR5 antigen; test: antigen ELISA; PBS 155 mM, clear glass type I, 24 h +40C
[27] = target: 28mer peptide of the CXCR5 antigen; test: antigen ELISA; PBS 155 mM, 1 h purged with air, 24 h +40C
[28] = target: 28mer peptide of the CXCR5 antigen; test: antigen ELISA; histidine pH 5.0 prototype A, 20 mg/mL, T0
[29] = target: 28mer peptide of the CXCR5 antigen; test: antigen ELISA; histidine pH 5.0 prototype D, 20 mg/mL, T0
[30] = target: 28mer peptide of the CXCR5 antigen; test: antigen ELISA; PBS 155 mM, clear glass type I as T0, 24 h +40C
[31] = target: 28mer peptide of the CXCR5 antigen; test: antigen ELISA; histidine pH 5.0 prototype B (table title LA_09_029B), 20 mg/mL, T0

B1: Lead CXCR5 Antibody (humanized IgG4 anti-CXCR5 antibody) (antibody, V domains shown)
VH: QVQLKESGPGLVAPSESLSITCTVSGFSLIDYGVNWIRQPPGKGLEWLGVIWGDGTTYYNPSLKSRLSISKDNSKSQVFLKVTSLTTDDTAMYYCARIVYWGQGTLVTVSA
VL: DIVMTQAAPSVAVTPGASVSISCRSSKSLLHSSGKTYLYWFLQRPGQSPQLLIYRLSSLASGVPDRFSGSGSGTAFTLRISRVEAEDVGVYYCMQHLEYPYTFGGGTKLEIKR
[1]
  EC50%: 72.3%
[2]
  Potency (Antigen ELISA) EC50 value (in comparison to reference): 105%
[3]
  Potency (Antigen ELISA) EC50 value (in comparison to reference): 75%
[4]
  EC50%: 107%
[5]
  Potency (Antigen ELISA) EC50 value (in comparison to reference): 107%
[6]
  Potency (Antigen ELISA) EC50 value (in comparison to reference): 75%
[7]
  Potency (Antigen ELISA) EC50 value (in comparison to reference): 95%
[8]
  Potency (Antigen ELISA) EC50 value (in comparison to reference): 97%
[9]
  Potency (Antigen ELISA) EC50 value (in comparison to reference): 92%
[10]
  Potency (Antigen ELISA) EC50 value (in comparison to reference): 121%
[11]
  Potency (Antigen ELISA) EC50 value (in comparison to reference): 75%
[12]
  Potency (Antigen ELISA) EC50 value (in comparison to reference): 84%
[13]
  Potency (Antigen ELISA) EC50 value (in comparison to reference): 96%
[14]
  Potency (Antigen ELISA) EC50 value (in comparison to reference): 101%
[15]
  Potency (Antigen ELISA) EC50 value (in comparison to reference): 93%
[16]
  Potency (Antigen ELISA) EC50 value (in comparison to reference): 114%
[17]
  Potency (Antigen ELISA) EC50 value (in comparison to reference): 119%
[18]
  Potency (Antigen ELISA) EC50 value (in comparison to reference): 96%
[19]
  Potency (Antigen ELISA) EC50 value (in comparison to reference): 104%
[20]
  Potency (Antigen ELISA) EC50 value (in comparison to reference): 96%
[21]
  Potency (Antigen ELISA) EC50 value (in comparison to reference): 127%
[22]
  EC50%: 104%
[23]
  EC50%: 104%
[24]
  EC50%: 142%
[25]
  EC50%: 91%
[26]
  EC50%: 131%
[27]
  EC50%: 84.3%
[28]
  EC50%: 174%
[29]
  EC50%: 169%
[30]
  EC50%: 62.3%
[31]
  EC50%: 118%
